Here are results for two molecules from patent US20200087367A1 (ACCELERON PHARMA, published 2020).

Experiment [1] addresses T1, BMP10 (human, UniProt O95393 317-424).
T1 construct: also called hBMP-10; hBMP10
T1 sequence: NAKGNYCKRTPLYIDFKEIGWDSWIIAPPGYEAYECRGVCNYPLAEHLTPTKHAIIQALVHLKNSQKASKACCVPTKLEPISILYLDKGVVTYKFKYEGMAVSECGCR
The experiment can be described thus: SPR (Biacore), ligand amine-coupled to CM5 chip, Fc fusion injected.

The target in experiment [2] is T2, BMP9 (human, UniProt Q9UK05 320-429).
T2 construct: also called hBMP-9; hBMP9
T2 sequence (looked up): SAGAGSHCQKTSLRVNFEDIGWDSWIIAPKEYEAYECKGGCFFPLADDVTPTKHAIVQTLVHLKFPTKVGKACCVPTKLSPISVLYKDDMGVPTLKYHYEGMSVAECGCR
The experiment is described as above.

In the next experiment the target is T3, BMP6 (human, UniProt P22004 382-513, limits assumed).
T3 sequence (looked up): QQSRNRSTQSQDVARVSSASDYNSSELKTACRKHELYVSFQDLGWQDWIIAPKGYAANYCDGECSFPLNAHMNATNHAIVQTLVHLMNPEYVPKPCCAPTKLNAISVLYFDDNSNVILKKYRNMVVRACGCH
The description is as above.

Experiment [3] has as its target T4, BMP5 (human, UniProt P22003 317-454, limits assumed).
T4 sequence (looked up): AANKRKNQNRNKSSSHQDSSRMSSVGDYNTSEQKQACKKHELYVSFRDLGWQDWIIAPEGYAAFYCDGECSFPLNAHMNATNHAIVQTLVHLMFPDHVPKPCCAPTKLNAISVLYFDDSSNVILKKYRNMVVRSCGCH
Described as above.

The target in experiment [4] is T1, BMP10. Put plainly: SPR (Biacore), ligand amine-coupled to chip, Fc fusion injected.
Experiment [5] has as its target T4, BMP5. The description is as above.
In experiment [6] the target is T2, BMP9. Put plainly: SPR (Biacore), ligand amine-coupled to chip, Fc fusion injected; the hFc form had only transient affinity for BMP9. An excerpt:
Ligands were immobilized on a Biacore™ CMS chip using standard amine-coupling procedure.

B1: ALK1-mFc (Fc fusion, mouse, UniProt Q61288 23-119, looked up)
chain: DLAKPSKLVNCTCESPHCKRPFCQGSWCTVVLVREQGRHPQVYRGCGSLNQELCLGRPTEFLNHHCCYRSFCNHNVSLMLEATQTPSEEPEVDAHLP
notes: extracellular domain; Mouse ALK1 fused to a murine Fc domain with a linker; also called mALK1-mFc; not shown: linker and murine Fc domain
For the molecule B1, the binding result is “binds” in the experiment with BMP10 [1], “binds” in the experiment with BMP9 [2], “no binding” with BMP6 and “no binding” with BMP5 [3].

B2: ActRIIB(L79D 25-131)-mFc (Fc fusion)
chain: ETRECIYYNANWELERTNQSGLERCEGEQDKRLHCYASWRNSSGTIELVKKGCWDDDFNCYDRQECVATEENPQVYFCCCEGNFCNERFTHLPEAGGPEVTYEPPPT
notes: not shown: linker and mouse Fc domain
For the molecule B2, the binding result with BMP10 [4] is “binds”; with BMP5 [5], “no binding”; in the experiment with BMP9 [6], “binds”.
